Assay [1] deals with PptA, phosin (polyP-targeting protein) from Streptomyces chartreusis (Streptomyces chartreusis). Kind of assay: SEC. Background: Size exclusion chromatography separates by hydrodynamic size, large species first.
The target is the same in assay [2]. Briefly: SAXS.

The term stoichiometry N denotes the number of molecules, sites or subunits per partner or assembly.

Regarding “PptA, phosin (polyP-targeting protein) from Streptomyces chartreusis (natural protein)”, the stoichiometry N in assay [1] and in assay [2] was 2 throughout.
